Results on two molecules are retold here after publication PMC8879280, “A Low-Activity Polymorphic Variant of Human NEIL2 DNA Glycosylase”.

The target of data set [1] is T1, hNEIL2 P304T P304T (Homo sapiens) (UniProt Q969S2).
T1 sequence: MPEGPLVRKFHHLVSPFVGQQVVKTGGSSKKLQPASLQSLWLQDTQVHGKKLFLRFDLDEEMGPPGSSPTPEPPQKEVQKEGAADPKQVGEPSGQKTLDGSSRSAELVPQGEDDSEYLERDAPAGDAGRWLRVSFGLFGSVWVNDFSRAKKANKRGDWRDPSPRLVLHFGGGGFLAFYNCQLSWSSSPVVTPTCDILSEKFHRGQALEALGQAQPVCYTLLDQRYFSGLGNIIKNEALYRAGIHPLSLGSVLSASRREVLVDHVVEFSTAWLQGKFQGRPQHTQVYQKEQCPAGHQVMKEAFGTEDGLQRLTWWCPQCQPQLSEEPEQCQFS
Nature of the data set: EMSA. The settings on record: THF (AP site analog) at position 21 of strand 1 (N); 25 mM potassium phosphate pH 7.5, 5 mM MgCl2, 1 mM DTT, 0.5 mg/mL BSA, 10% glycerol; 35 nM bubble or 100 nM duplex ligand; 5 min on ice, 8% native PAGE at 4 C. A general note: In EMSA bound probe runs differently from free probe, usually more slowly.

Data set [2] concerns the target T2, hNEIL2 R103W R103W (Homo sapiens) (UniProt Q969S2).
T2 sequence: T1 sequence with R103W, T304P
Nature of the data set: EMSA. The settings on record: THF (AP site analog) at position 21 of strand 1 (N); 25 mM potassium phosphate pH 7.5, 5 mM MgCl2, 1 mM DTT, 0.5 mg/mL BSA, 10% glycerol; 35 nM bubble or 100 nM duplex ligand; 5 min on ice, 8% native PAGE at 4 C.

Another data set has as its target T3, hNEIL2 WT (Homo sapiens) (UniProt Q969S2).
T3 sequence: T1 sequence with T304P
Nature of the data set: EMSA. The settings on record: THF (AP site analog) at position 21 of strand 1 (N); 25 mM potassium phosphate pH 7.5, 5 mM MgCl2, 1 mM DTT, 0.5 mg/mL BSA, 10% glycerol; 35 nM bubble or 100 nM duplex ligand; 5 min on ice, 8% native PAGE at 4 C.

The next data set addresses T4, hNEIL2 P304T (Homo sapiens, UniProt Q969S2 1-332, P304T).
T4 sequence: T1 sequence
Nature of the data set: EMSA; 5 mM Mg2+; apparent, sigmoidal fit; 25 mM potassium phosphate pH 7.5, 5 mM MgCl2, 1 mM DTT, 0.5 mg/mL BSA, 10% glycerol; 35 nM bubble or 100 nM duplex ligand; 5 min on ice, 8% native PAGE at 4 C. The settings on record: protein: recombinant; tags: C-terminal GHHHHHH; label: 32P; 10-nt central bubble between two 15-bp arms, blunt.

The next data set addresses T5, hNEIL2 R103W (Homo sapiens, UniProt Q969S2 1-332, R103W).
T5 sequence: T1 sequence with R103W, T304P
The description is as above. The settings on record: protein: recombinant; tags: C-terminal GHHHHHH; label: 32P; 10-nt central bubble between two 15-bp arms, blunt.

Another data set concerns the target T6, hNEIL2 WT (Homo sapiens, UniProt Q969S2 1-332).
T6 sequence: T1 sequence with T304P
Described as above. The settings on record: protein: recombinant; tags: C-terminal GHHHHHH; label: 32P; 10-nt central bubble between two 15-bp arms, blunt.

Positions count from the first letter of the chain named.

In the case of “CCTGCATGGGCGGCAGAACTNGAGGCCATCCTCACCATCC / GGATGGTGAGGATGGGAGGTTCCCTTGCCGCCCATGCAGG [40F//40bubble (THF bubble)]”, the K half in data set [1] turned out to be 6.4 µM; in data set [2], 10.4 µM; in the data set with hNEIL2 WT (Homo sapiens) it was 1000 nM.

B1: 40C//40bubble (undamaged bubble) (dsDNA)
DNA 1: CCTGCATGGGCGGCAGAACTCGAGGCCATCCTCACCATCC
DNA 2: GGATGGTGAGGATGGGAGGTTCCCTTGCCGCCCATGCAGG
As for B1, the “apparent K (half saturation)” value in the data set with hNEIL2 P304T amounted to 7 ± 0.3 µM; in the data set with hNEIL2 R103W, 11.7 ± 0.7 µM; with hNEIL2 WT, 1000 ± 100 nM.
